Laboratory results published in article PMC10397247.
Read-outs that look alike come from different tables or passages of the source.

T1: O9
T1 chain: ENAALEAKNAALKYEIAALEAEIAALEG

T2: O8
T2 chain: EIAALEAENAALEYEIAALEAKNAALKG

T3: O5
T3 chain: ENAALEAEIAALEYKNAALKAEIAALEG

T4: O6
T4 chain: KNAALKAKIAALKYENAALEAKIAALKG

T5: O7
T5 chain: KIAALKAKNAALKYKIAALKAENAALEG

T6: P2-AA-12HAA-K
T6 chain: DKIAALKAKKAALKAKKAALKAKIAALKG

T7: P2-AA-12HAA-Y
T7 chain: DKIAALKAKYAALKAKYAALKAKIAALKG

T8: P2-AA-12HAA-V
T8 chain: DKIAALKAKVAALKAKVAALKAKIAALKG

T9: P2-AA-12HAA-D
T9 chain: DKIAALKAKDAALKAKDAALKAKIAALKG

T10: P2-AA-12HAA-S
T10 chain: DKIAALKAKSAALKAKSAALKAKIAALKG

T11: P2-AA-12HAA-R
T11 chain: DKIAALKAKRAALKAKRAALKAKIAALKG

T12: P2-AA-12HAA-I
T12 chain: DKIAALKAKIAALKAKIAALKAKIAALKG

T13: P2-AA-12HAA-E
T13 chain: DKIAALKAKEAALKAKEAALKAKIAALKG

T14: P2-AA-12HAA-L
T14 chain: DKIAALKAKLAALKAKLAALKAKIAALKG

T15: P2-AA
T15 chain: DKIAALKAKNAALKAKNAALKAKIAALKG

T16: P2-AA-12HAA-T
T16 chain: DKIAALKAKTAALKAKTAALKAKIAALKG

T17: P2-AA-12HAA-H
T17 chain: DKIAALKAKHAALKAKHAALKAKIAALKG

T18: 4H87-AA
T18 chain: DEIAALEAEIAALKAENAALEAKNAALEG

T19: 4H278-AA
T19 chain: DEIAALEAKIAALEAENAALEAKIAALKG

T20: 4H3625-AA
T20 chain: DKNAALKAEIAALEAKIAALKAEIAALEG

T21: 4H775-AA
T21 chain: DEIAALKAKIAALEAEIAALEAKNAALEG

T22: 4H510-AA
T22 chain: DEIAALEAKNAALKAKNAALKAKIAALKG

T23: 4H2985-AA
T23 chain: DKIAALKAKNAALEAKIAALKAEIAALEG

T24: 4H3940-AA
T24 chain: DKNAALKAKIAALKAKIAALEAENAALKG

T25: 4H3409-AA
T25 chain: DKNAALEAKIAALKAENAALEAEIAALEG

T26: 4H2873-AA
T26 chain: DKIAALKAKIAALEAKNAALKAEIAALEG

T27: 4H816-AA
T27 chain: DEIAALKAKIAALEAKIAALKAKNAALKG

T28: 4H3134-AA
T28 chain: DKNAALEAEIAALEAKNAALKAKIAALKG

T29: 4H2758-AA
T29 chain: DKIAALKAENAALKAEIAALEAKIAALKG

T30: 4H390-AA
T30 chain: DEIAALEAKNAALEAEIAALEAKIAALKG

T31: P2-AA-12HGe-W
T31 chain: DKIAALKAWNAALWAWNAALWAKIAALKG

T32: P9bHq
T32 chain: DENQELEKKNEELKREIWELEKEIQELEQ

T33: 4H492-bH
T33 chain: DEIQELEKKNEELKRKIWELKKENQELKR

T34: 4H2915-bH
T34 chain: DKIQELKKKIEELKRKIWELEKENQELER

T35: 4H348-bH
T35 chain: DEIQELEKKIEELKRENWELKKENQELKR

T36: 4H2839-bH
T36 chain: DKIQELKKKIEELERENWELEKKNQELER

T37: 4H319-bH
T37 chain: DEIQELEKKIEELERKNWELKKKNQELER

T38: 4H477-bH
T38 chain: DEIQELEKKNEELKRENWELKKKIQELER

T39: 4H3057-bH
T39 chain: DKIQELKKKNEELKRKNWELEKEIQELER

T40: 4H40-bH
T40 chain: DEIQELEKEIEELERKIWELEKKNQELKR

T41: 4H741-bH
T41 chain: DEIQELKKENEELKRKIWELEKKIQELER

T42: 4H3277-bH
T42 chain: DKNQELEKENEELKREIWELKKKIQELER


How the values were obtained:
O9 = molecular target: T1, O9; experiment: two-hybrid library CC0; conditions: mean of both orientations;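 further: natural log of median RNA to DNA barcode read ratio; higher means stronger binding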
O8 = molecular target: T2, O8; experiment: two-hybrid library CC0; conditions: mean of both orientations;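 further: natural log of median RNA to DNA barcode read ratio; higher means stronger binding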
O5 = molecular target: T3, O5; experiment: two-hybrid library CC0; conditions: mean of both orientations;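 further: natural log of median RNA to DNA barcode read ratio; higher means stronger binding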
O6 = molecular target: T4, O6; experiment: two-hybrid library CC0; conditions: mean of both orientations;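 further: natural log of median RNA to DNA barcode read ratio; higher means stronger binding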
O7 = molecular target: T5, O7; experiment: two-hybrid library CC0; conditions: mean of both orientations
P2-AA-12HAA-K = molecular target: T6, P2-AA-12HAA-K; experiment: two-hybrid library CCmax; conditions: mean of both orientations
P2-AA-12HAA-Y = molecular target: T7, P2-AA-12HAA-Y; experiment: two-hybrid library CCmax; conditions: mean of both orientations
P2-AA-12HAA-V = molecular target: T8, P2-AA-12HAA-V; experiment: two-hybrid library CCmax; conditions: mean of both orientations
P2-AA-12HAA-D = molecular target: T9, P2-AA-12HAA-D; experiment: two-hybrid library CCmax; conditions: mean of both orientations
P2-AA-12HAA-S = molecular target: T10, P2-AA-12HAA-S; experiment: two-hybrid library CCmax; conditions: mean of both orientations
P2-AA-12HAA-R = molecular target: T11, P2-AA-12HAA-R; experiment: two-hybrid library CCmax; conditions: mean of both orientations
P2-AA-12HAA-I = molecular target: T12, P2-AA-12HAA-I; experiment: two-hybrid library CCmax; conditions: mean of both orientations
P2-AA-12HAA-E = molecular target: T13, P2-AA-12HAA-E; experiment: two-hybrid library CCmax
P2-AA-12HAA-L = molecular target: T14, P2-AA-12HAA-L; experiment: two-hybrid library CCmax
P2-AA = molecular target: T15, P2-AA; experiment: two-hybrid library CCmax; conditions: mean of both orientations
P2-AA-12HAA-T = molecular target: T16, P2-AA-12HAA-T; experiment: two-hybrid library CCmax; conditions: mean of both orientations
P2-AA-12HAA-H = molecular target: T17, P2-AA-12HAA-H; experiment: two-hybrid library CCmax
4H87-AA = molecular target: T18, 4H87-AA; experiment: two-hybrid library CCmax; conditions: mean of both orientations
4H278-AA = molecular target: T19, 4H278-AA; experiment: two-hybrid library CCmax; conditions: mean of both orientations
4H3625-AA = molecular target: T20, 4H3625-AA; experiment: two-hybrid library CCmax; conditions: mean of both orientations
4H775-AA = molecular target: T21, 4H775-AA; experiment: two-hybrid library CCmax; conditions: mean of both orientations
4H510-AA = molecular target: T22, 4H510-AA; experiment: two-hybrid library CCmax; conditions: mean of both orientations
4H2985-AA = molecular target: T23, 4H2985-AA; experiment: two-hybrid library CCmax; conditions: mean of both orientations
4H3940-AA = molecular target: T24, 4H3940-AA; experiment: two-hybrid library CCmax; conditions: mean of both orientations
4H3409-AA = molecular target: T25, 4H3409-AA; experiment: two-hybrid library CCmax; conditions: mean of both orientations
4H2873-AA = molecular target: T26, 4H2873-AA; experiment: two-hybrid library CCmax; conditions: mean of both orientations
4H816-AA = molecular target: T27, 4H816-AA; experiment: two-hybrid library CCmax; conditions: mean of both orientations
4H3134-AA = molecular target: T28, 4H3134-AA; experiment: two-hybrid library CCmax; conditions: mean of both orientations
4H2758-AA = molecular target: T29, 4H2758-AA; experiment: two-hybrid library CCmax
4H390-AA = molecular target: T30, 4H390-AA; experiment: two-hybrid library CCmax; conditions: mean of both orientations
P2-AA-12HGe-W = molecular target: T31, P2-AA-12HGe-W; experiment: two-hybrid library CCmax
P9bHq = molecular target: T32, P9bHq; experiment: two-hybrid library CCNG1
4H492-bH = molecular target: T33, 4H492-bH; experiment: two-hybrid library CCNG1
4H2915-bH = molecular target: T34, 4H2915-bH; experiment: two-hybrid library CCNG1
4H348-bH = molecular target: T35, 4H348-bH; experiment: two-hybrid library CCNG1
4H2839-bH = molecular target: T36, 4H2839-bH; experiment: two-hybrid library CCNG1
4H319-bH = molecular target: T37, 4H319-bH; experiment: two-hybrid library CCNG1
4H477-bH = molecular target: T38, 4H477-bH; experiment: two-hybrid library CCNG1
4H3057-bH = molecular target: T39, 4H3057-bH; experiment: two-hybrid library CCNG1
4H40-bH = molecular target: T40, 4H40-bH; experiment: two-hybrid library CCNG1
4H741-bH = molecular target: T41, 4H741-bH; experiment: two-hybrid library CCNG1
4H3277-bH = molecular target: T42, 4H3277-bH; experiment: two-hybrid library CCNG1

Binder | interaction score (P2-AA-12HAA-K) | interaction score (P2-AA-12HAA-Y) | interaction score (P2-AA-12HAA-V) | interaction score (P2-AA-12HAA-D) | interaction score (P2-AA-12HAA-S) | interaction score (P2-AA-12HAA-R) | interaction score (P2-AA-12HAA-I) | interaction score (P2-AA-12HAA-E; mean of both orientations) | interaction score (P2-AA-12HAA-L; mean of both orientations) | interaction score (P2-AA) | interaction score (P2-AA-12HAA-T) | interaction score (P2-AA-12HAA-H; mean of both orientations) | also measured
ENAALEAEIAALEYKNAALKAEIAALEG [O5] | – | – | – | – | – | – | – | – | – | – | – | – | interaction score (O9): -2.73; interaction score (O8): -2.47; interaction score (O5): -2.78; interaction score (O6): 1.41; interaction score (O7): -2.67
DEIAALEAEAAALEAEAAALEAEIAALEG [P1-AA-12HAA-A] | 1.48 | 2 | 1.9 | -0.675 | 1.55 | 0.883 | 1.82 | 0.947 | 1.84 | 1.79 | 1.66 | 2.14 | –
DEIAALEAEVAALEAEVAALEAEIAALEG [P1-AA-12HAA-V] | 1.35 | 1.8 | 2.21 | 1.1 | 1.44 | 1.69 | 1.82 | – | – | 2.1 | 1.86 | 1.25 | interaction score (P2-AA-12HAA-E): 1.83; interaction score (P2-AA-12HAA-L): 1.78
DKIAALKAENAALKAEIAALEAKIAALKG [4H2758-AA] | – | – | – | – | – | – | – | – | – | – | – | – | interaction score (4H87-AA): -1.35; interaction score (4H278-AA): -0.138; interaction score (4H3625-AA): -0.393; interaction score (4H775-AA): -0.652; interaction score (4H510-AA): 0.225; interaction score (4H2985-AA): 1.59; interaction score (4H3940-AA): -1.45; interaction score (4H3409-AA): -0.325; interaction score (4H2873-AA): -0.654; interaction score (4H816-AA): -1.38; interaction score (4H3134-AA): 0.499; interaction score (4H2758-AA): 1.56; interaction score (4H390-AA): 0.895
DEIAALEAEIAALEAEIAALEAEIAALEG [P1-AA-12HAA-I] | 1.78 | 1.87 | 1.79 | 1.29 | 2.16 | 2 | 2.05 | 1.58 | 2.28 | 1.8 | 1.75 | – | interaction score (P2-AA-12HAA-H): 1.79
DEIAALEAERAALEAERAALEAEIAALEG [P1-AA-12HAA-R] | -0.626 | 0.106 | 1.37 | -0.753 | 1.44 | -1.34 | 1.45 | 0.85 | 1.95 | 1.8 | 0.243 | 0.326 | –
DEIAALEAEDAALEAEDAALEAEIAALEG [P1-AA-12HAA-D] | 0.46 | -1.44 | -0.204 | -1.35 | 0.438 | 1.84 | -0.345 | -1.33 | -1.19 | -0.884 | -1.11 | 0.205 | interaction score (P2-AA-12HGe-W): -2.4
DEIAALEAEHAALEAEHAALEAEIAALEG [P1-AA-12HAA-H] | 0.96 | -0.416 | 1.78 | -1.24 | 1.07 | -0.0784 | 1.75 | 0.0438 | 1.83 | 1.85 | 1.16 | -0.35 | –
DENQELEKKNEELKREIWELEKEIQELEQ [P9bHq] | – | – | – | – | – | – | – | – | – | – | – | – | interaction score (P9bHq): -0.654
DKIQELKKKIEELERENWELEKKNQELER [4H2839-bH] | – | – | – | – | – | – | – | – | – | – | – | – | interaction score (4H492-bH): -0.474; interaction score (4H2915-bH): 0.242; interaction score (4H348-bH): 0.581; interaction score (4H2839-bH): 1.04; interaction score (4H319-bH): 1.44; interaction score (4H477-bH): -0.629; interaction score (4H3057-bH): 0.0652; interaction score (4H40-bH): 0.0596; interaction score (4H741-bH): -0.868; interaction score (4H3277-bH): -1.06
